# Measured values published in paper PMC9524831 (Science Advances, 2022).
# Target: HA-GluA1 (mouse AMPA receptor subunit GluA1) (mouse, UniProt P23818 19-907)
# Experiment: cell-based or functional assay
# Sequence of HA-GluA1 (mouse AMPA receptor subunit GluA1) (P23818 19-907): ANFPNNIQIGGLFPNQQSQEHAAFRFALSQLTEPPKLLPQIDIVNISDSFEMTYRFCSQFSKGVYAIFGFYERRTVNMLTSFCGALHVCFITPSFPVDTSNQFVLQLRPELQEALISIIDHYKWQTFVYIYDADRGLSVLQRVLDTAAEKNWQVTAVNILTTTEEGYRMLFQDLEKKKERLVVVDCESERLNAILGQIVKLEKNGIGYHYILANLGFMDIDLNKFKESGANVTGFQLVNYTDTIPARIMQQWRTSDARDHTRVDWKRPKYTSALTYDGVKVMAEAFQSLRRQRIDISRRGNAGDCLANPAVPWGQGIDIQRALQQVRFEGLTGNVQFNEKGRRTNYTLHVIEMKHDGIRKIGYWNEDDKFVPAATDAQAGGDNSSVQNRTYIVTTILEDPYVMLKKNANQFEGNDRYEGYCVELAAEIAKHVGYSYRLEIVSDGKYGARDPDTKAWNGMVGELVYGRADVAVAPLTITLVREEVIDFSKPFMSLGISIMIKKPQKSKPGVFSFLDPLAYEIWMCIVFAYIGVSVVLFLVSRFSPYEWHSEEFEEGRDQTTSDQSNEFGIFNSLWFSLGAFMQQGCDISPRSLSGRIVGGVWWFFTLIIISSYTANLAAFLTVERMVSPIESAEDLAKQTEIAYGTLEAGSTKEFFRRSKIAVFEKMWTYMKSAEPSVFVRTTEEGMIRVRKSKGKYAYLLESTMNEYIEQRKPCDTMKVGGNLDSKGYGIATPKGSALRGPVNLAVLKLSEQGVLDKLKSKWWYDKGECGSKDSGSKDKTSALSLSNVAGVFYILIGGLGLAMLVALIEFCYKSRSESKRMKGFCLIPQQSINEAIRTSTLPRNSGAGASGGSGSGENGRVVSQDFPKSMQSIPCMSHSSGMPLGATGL
row,Binder,GluA1 polyubiquitination level relative to wild-type RNF220 transfection
1,"RNF220(R363Q) (enzyme, mouse, UniProt Q6PDX6 1-566, looked up) MDLHRAAFKMENSSYLPNPLASPALMVLASTAEASRDASIPCQQPRPFGVPVSVDKDVHIPFTNGSYTFASMYHRQGGVPGTFANRDFPPSLLHLHPQFAPPNLDCTPISMLNHSGVGAFRPFASTEDRESYQSAFTPAKRLKNCHDTESPHLRFSDADGKEYDFGTQLPSSSPGSLKVDDTGKKIFAVSGLISDRETSSSPEDRNDRCKKKAVALFDSQAPLCPICQVLLRPSELQEHMEQELEQLAQLPASKNSLLKDAMAPGTPKSLLLSASIKREGDSPTASPHSSATEDLHHSDRYQTFLRVRANRQTRLNARIGKMKRRKQDEGQREGSCMAEDDAVDIEHADSNRFEEYEWCGQKQIRATTLLEGGFRGSGFVMCSGKENPDSDADLDVDGDDTLEYGKPQYTEADVIPCTGEEPGEAKEREALRGAVLNGGPPSTRITPEFSKWASDEMPSTSNGEGSKQEAMQKTCKNSDIEKITEESAVTTFEALKARVRELERQLSRGDRYKCLICMDSYSMPLTSIQCWHVHCEECWLRTLGAKKLCPQCNTITAPGDLRRIYL",0.34
2,"RNF220(R365Q) (enzyme, mouse, UniProt Q6PDX6 1-566, looked up) MDLHRAAFKMENSSYLPNPLASPALMVLASTAEASRDASIPCQQPRPFGVPVSVDKDVHIPFTNGSYTFASMYHRQGGVPGTFANRDFPPSLLHLHPQFAPPNLDCTPISMLNHSGVGAFRPFASTEDRESYQSAFTPAKRLKNCHDTESPHLRFSDADGKEYDFGTQLPSSSPGSLKVDDTGKKIFAVSGLISDRETSSSPEDRNDRCKKKAVALFDSQAPLCPICQVLLRPSELQEHMEQELEQLAQLPASKNSLLKDAMAPGTPKSLLLSASIKREGDSPTASPHSSATEDLHHSDRYQTFLRVRANRQTRLNARIGKMKRRKQDEGQREGSCMAEDDAVDIEHADSNRFEEYEWCGQKRIQATTLLEGGFRGSGFVMCSGKENPDSDADLDVDGDDTLEYGKPQYTEADVIPCTGEEPGEAKEREALRGAVLNGGPPSTRITPEFSKWASDEMPSTSNGEGSKQEAMQKTCKNSDIEKITEESAVTTFEALKARVRELERQLSRGDRYKCLICMDSYSMPLTSIQCWHVHCEECWLRTLGAKKLCPQCNTITAPGDLRRIYL",0.3
